Source: patent US20130055470

B1: OsTR1-1 protein (protein)
chain: MGDHVAVDVGGLMASRGAGEEETGALIGMVECRICQEEDLAKNLESPCACSGSLKYAHRECVQRWCNEKGDIICEICHVSYKPGYTAPPQVHHDETTIEISSGDWSISGNRLDLHDPRILAMAAAQHRLLEDEYDEYTATNNNAAAFCRSIFLILMALLLLRHTLTITSSDDEDDASAIFSLFLLRAAGFLLPCYIMAWAISIMQRQRQRQEEAMLLPTEVAIILHRNGRTMQFAVAPESPTTPHPEQGQ
B2: AtTR1 protein (protein)
chain: MADHLSLCTDRLITSESLDSEKDSDSSGESSYRPQGTDLASSSVNETEVPREYYAVADEEEPLLQSVECRICQEEDSTKNLEAPCACNGSLKYAHRKCVQRWCNEKGDITCEICHQPYQHGYTAPPPPPPDETIIHIGDDWENGVPLDLTDPRILAMAAAERHFLEADYDEYSENNSSGAAFCRSAALILMALLLLRDALNLTTNPDDEDDPTAFFSLFLLRAAGFLLPCYIMAWAIGILQRRRQRQEAAALAAAEVTFMIHGGGPQRRGLHFAVAPQPPISNVPTPV
B3: ZmTR1 protein (protein)
chain: MAGDDHVVVDVNGLAKSKDDGGSKKLSEDANGSAPAAASLSAAVDLVQEEEEEEGDGEEQPLIQAAECRICQEEDSVKNLEKPCACSGSLKYAHRACVQRWCNEKGDTTCEICHEEYKPGYTAPPRVQPDETTIDIDGDLVMDLRDPRILAVAAAQHRLLEAEYDGYASTDASGAAFCRSAALILMALLLLRHALSMSDNEGNDDDASTIFSLFLLRAAGFLLPCYIMAWIFSILHRRRQRQEEAALAAAEVAFILQSARGRALQFAIAPDSPATPQHEPVSQQQQ

Molecular target: ubiquitin

Protein | E3 ubiquitin ligase activity (in vitro ubiquitination reaction, anti-Ub Western blot)
B1 | multiple bands occurred in the lane with the addition of E1, E2, ATP and Ub, while no band occurred in the control
B2 | multiple bands occurred in the lane with the addition of E1, E2, ATP and Ub, while no band occurred in the control
B3 | multiple bands occurred in the lane with the addition of E1, E2, ATP and Ub, while no band occurred in the control
